The source of these data is patent US10030233B2, “Modified P450 reductase with N-terminal deletions and endoplasmic reticulum retention tag” (DE MONTFORT UNIVERSITY, priority 2013, dated 2018).

One data set concerns the target T1, CYP1A2 (Homo sapiens, UniProt P05177).
T1 construct: A 1563 bp BamHI-XhoI fragment containing the human CYP1A2 gene; made in house; host or cells: Saccharomyces cerevisiae W303B, microsomes
T1 sequence (P05177 1-516): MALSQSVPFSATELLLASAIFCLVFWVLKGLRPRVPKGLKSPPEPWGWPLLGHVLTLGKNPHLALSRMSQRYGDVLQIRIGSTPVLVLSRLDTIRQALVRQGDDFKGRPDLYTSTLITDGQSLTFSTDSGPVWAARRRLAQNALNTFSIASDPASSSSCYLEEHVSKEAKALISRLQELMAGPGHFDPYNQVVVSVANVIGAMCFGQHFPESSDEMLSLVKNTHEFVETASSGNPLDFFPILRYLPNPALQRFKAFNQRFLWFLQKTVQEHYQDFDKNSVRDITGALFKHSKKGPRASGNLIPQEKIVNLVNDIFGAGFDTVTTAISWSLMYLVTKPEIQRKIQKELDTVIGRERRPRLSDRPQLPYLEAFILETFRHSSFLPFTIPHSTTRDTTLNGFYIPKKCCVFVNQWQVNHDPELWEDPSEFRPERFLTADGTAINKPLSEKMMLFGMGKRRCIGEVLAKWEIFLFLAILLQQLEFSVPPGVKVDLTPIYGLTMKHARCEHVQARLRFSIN
It is filed as biochemical.

The nature of data set [1]: MTT-based cytochrome P450 reductase assay on yeast microsomes. It is filed as biochemical. To be noted: relative to hRD = 1; 100 μg yeast microsomes, A610. The text has this:
The enzyme NADPH-cytochrome P450 reductase mediates the transfer of electrons from NADPH to cytochrome P450, other microsomal proteins and cytochrome c. It also catalyses the reduction of many drugs and other compounds such as potassium ferricyanide, 2,6-dichloroindopheonl, 1,1-diphenyl-2-picrylhydrazyl (DPPH), and mitomycin c. Tetrazolium salts are used extensively in cell proliferation and cytotoxicity assays, enzyme assays, histochemical procedures and bacteriological screening. […] The compound 3-(4,5-dimethylthiazol-2-yl)-2,5-diphenyltetrazolium bromide (MTT) is a monotetrazolium salt. The reduction of MTT is one of the most frequently used methods for measuring cell proliferation and cytotoxicity. Reduction of MTT by P450 reductase has been assessed as a method for monitoring yeast produced recombinant P450 reductase activity and the protocol was developed on the procedure published by Yim S-K, et al (Yim S-K., Y. C.-H. Ahn T., Hung H-C and Pan J-G. A continuous Spectrophotometric assay for NADPH-cytochrome P450 reductase activity using 3-(4,5 Dimethylthiazol-2-yl)-2,5-diphenyltetrazolium Bromide. Journal of Biology and Molecular Biology 38: 366-369, 2005). The principal advantage of this substance is that the reduction of MTT can be assayed directly in the reaction medium by a continuous spectrophotometirc method. The electrons released from NADPH by P450 reductase are transferred to MTT, and then the amounts of reduced MTT is assessed spectrophotometrically by measuring the increase in A610 values that is due to the formation of blue formazan. The extinction coefficient of MTT is 11.3 mM^−1 cm^−1. This method offers the advantages of short analysis time with the use of a relatively cheap commercial substrate. The classical assay uses recombinant cytochrome c as a substrate. […]
Disposable cuvettes were used for this experiment. […] The cuvette was quickly placed into the spectrophotometer together with the blank cuvette and its contents (that contained all components as in the other test cuvette but not the microsomes or cell supernatant) and the increase in the values at 610 nm was measured for a time period of 400 seconds. The electrons released from NADPH by recombinant P450 reductase enzyme were transferred to MTT, and the ability to reduce MTT was assessed spectrophotometrically by measuring the increase in A610 values as a result of the formation of blue formazan. The rate of MTT reduction was calculated from the change in A610 values using an extinction coefficient of 11.3 mM^−1 cm^−1 and the formula, ΔA610/min/11.3*0.1 mg/ml=μmole reduced MTT/min/mg of protein.

B1: ΔN2hRD-HDEL: human P450 reductase lacking the 54-amino acid membrane anchoring region, with C-terminal yeast ER retention signal HDEL (protein)
chain: MTKIQTLTSSVRESSFVEKMKKTGRNIIVFYGSQTGTAEEFANRLSKDAHRYGMRGMSADPEEYDLADLSSLPEIDNALVVFCMATYGEGDPTDNAQDFYDWLQETDVDLSGVKFAVFGLGNKTYEHFNAMGKYVDKRLEQLGAQRIFELGLGDDDGNLEEDFITWREQFWPAVCEHFGVEATGEESSIRQYELVVHTDIDAAKVYMGEMGRLKSYENQKPPFDAKNPFLAAVTTNRKLNQGTERHLMHLELDISDSKIRYESGDHVAVYPANDSALVNQLGKILGADLDVVMSLNNLDEESNKKHPFPCPTSYRTALTYYLDITNPPRTNVLYELAQYASEPSEQELLRKMASSSGEGKELYLSWVVEARRHILAILQDCPSLRPPIDHLCELLPRLQARYYSIASSSKVHPNSVHICAVVVEYETKAGRINKGVATNWLRAKEPAGENGGRALVPMFVRKSQFRLPFKATTPVIMVGPGTGVAPFIGFIQERAWLRQQGKEVGETLLYYGCRRSDEDYLYREELAQFHRDGALTQLNVAFSREQSHKVYVQHLLKQDREHLWKLIEGGAHIYVCGDARNMARDVQNTFYDIVAELGAMEHAQAVDYIKKLMTKGRYSLDVWSHDEL
modifications: delN2hRD-HDEL
notes: human P450 reductase lacking the 54-amino acid membrane anchoring region, with C-terminal yeast ER retention signal HDEL
For the molecule B1, the “pmoles of CYP1A2/mg of total protein (Relative Amounts)” value (“pmoles … (Relative Amounts)” for short) in the data set with CYP1A2 was determined as 6 ± 10%. In data set [1], the “μM of reduced MTT/min/mg of protein (Relative Rates)” value is 3.5 ± 10%.

B2: ΔN1hRD-HDEL: human P450 reductase lacking N-terminal 24 amino acids, with C-terminal yeast ER retention signal HDEL (protein)
chain: MTDMILFSLIVGLLTYWFLFRKKKEEVPEFTKIQTLTSSVRESSFVEKMKKTGRNIIVFYGSQTGTAEEFANRLSKDAHRYGMRGMSADPEEYDLADLSSLPEIDNALVVFCMATYGEGDPTDNAQDFYDWLQETDVDLSGVKFAVFGLGNKTYEHFNAMGKYVDKRLEQLGAQRIFELGLGDDDGNLEEDFITWREQFWPAVCEHFGVEATGEESSIRQYELVVHTDIDAAKVYMGEMGRLKSYENQKPPFDAKNPFLAAVTTNRKLNQGTERHLMHLELDISDSKIRYESGDHVAVYPANDSALVNQLGKILGADLDVVMSLNNLDEESNKKHPFPCPTSYRTALTYYLDITNPPRTNVLYELAQYASEPSEQELLRKMASSSGEGKELYLSWVVEARRHILAILQDCPSLRPPIDHLCELLPRLQARYYSIASSSKVHPNSVHICAVVVEYETKAGRINKGVATNWLRAKEPAGENGGRALVPMFVRKSQFRLPFKATTPVIMVGPGTGVAPFIGFIQERAWLRQQGKEVGETLLYYGCRRSDEDYLYREELAQFHRDGALTQLNVAFSREQSHKVYVQHLLKQDREHLWKLIEGGAHIYVCGDARNMARDVQNTFYDIVAELGAMEHAQAVDYIKKLMTKGRYSLDVWSHDEL
modifications: delN1hRD-HDEL
notes: human P450 reductase lacking N-terminal 24 amino acids, with C-terminal yeast ER retention signal HDEL
For B2, in the data set with CYP1A2, the “pmoles … (Relative Amounts)” value was found to be 6 ± 10%. Also, in data set [1], the “μM of reduced MTT/min/mg of protein (Relative Rates)” value is 3 ± 10%.

B3: hRD: wild-type human P450 reductase, full length, control (protein, listed as Homo sapiens)
chain: MGDSHVDTSSTVSEAVAEEVSLFSMTDMILFSLIVGLLTYWFLFRKKKEEVPEFTKIQTLTSSVRESSFVEKMKKTGRNIIVFYGSQTGTAEEFANRLSKDAHRYGMRGMSADPEEYDLADLSSLPEIDNALVVFCMATYGEGDPTDNAQDFYDWLQETDVDLSGVKFAVFGLGNKTYEHFNAMGKYVDKRLEQLGAQRIFELGLGDDDGNLEEDFITWREQFWPAVCEHFGVEATGEESSIRQYELVVHTDIDAAKVYMGEMGRLKSYENQKPPFDAKNPFLAAVTTNRKLNQGTERHLMHLELDISDSKIRYESGDHVAVYPANDSALVNQLGKILGADLDVVMSLNNLDEESNKKHPFPCPTSYRTALTYYLDITNPPRTNVLYELAQYASEPSEQELLRKMASSSGEGKELYLSWVVEARRHILAILQDCPSLRPPIDHLCELLPRLQARYYSIASSSKVHPNSVHICAVVVEYETKAGRINKGVATNWLRAKEPAGENGGRALVPMFVRKSQFRLPFKATTPVIMVGPGTGVAPFIGFIQERAWLRQQGKEVGETLLYYGCRRSDEDYLYREELAQFHRDGALTQLNVAFSREQSHKVYVQHLLKQDREHLWKLIEGGAHIYVCGDARNMARDVQNTFYDIVAELGAMEHAQAVDYIKKLMTKGRYSLDVWS
On to B3, for which, in the data set with CYP1A2, the “pmoles … (Relative Amounts)” value worked out at 1. The “μM of reduced MTT/min/mg of protein (Relative Rates)” value in data set [1] is on record as 1.
